We go through seven molecules from US20220396632A1 (VERSEAU THERAPEUTICS, published 2022).

No end group written: not given here. Bounds are passed on as bounds.

The target of experiment [1] is T1, Biotin PSGL-1(42-62) E56A peptide (C-terminal Lys-biotin).
T1 peptide: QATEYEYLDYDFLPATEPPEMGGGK
Nature of the experiment: ELISA; against wild-type PSGL-1 42-62.

The next experiment addresses T2, PSGL-1(49-56)-Biotin (human, UniProt Q14242).
T2 construct: synthetic peptide; also called short PSGL-1 49-56 peptide with C-terminal biotin
T2 peptide (looked up): LDYDFLPE-biotin
As to the kind of experiment: ELISA, plate-immobilized biotin peptide. In general terms: An ELISA detects its analyte on a solid surface through an enzyme-linked reagent.

The target of experiment [2] is T3, Biotin PSGL-1(42-62) peptide, unmodified (human, C-terminal Lys-biotin).
T3 construct: Residues 42-62 followed by GGGK-biotin; also called WT; wild-type
T3 peptide: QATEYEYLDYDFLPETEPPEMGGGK
Nature of the experiment: ELISA, plate-bound mAb captures biotin peptide. An outline of the steps:
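Direct format: anti-PSGL-1 mAb at a single concentration (2–500 nM) or serially diluted (0.002–100 nM) on immobilized target, detected with HRP anti-IgG and TMB at A450; 45 min steps at 37° C. Capture format: coated mAb (3 ug/mL) binds biotinylated unmodified or sulfotyrosine peptide (3 nM–3 uM), detected with HRP-streptavidin.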

For experiment [3], the target named is T4, Recombinant human PSGL-1(ECD)-hFc1 (R&D Systems, Cat. 3345-PS) (human, UniProt Q14242 42-305).
T4 construct: Bought; Gln42-Val295 counted on AAC50061; also called PSGL-1-Fc; PSGL-1-hFc1 chimera; not shown: human IgG1 Fc, Pro100-Lys330
T4 sequence: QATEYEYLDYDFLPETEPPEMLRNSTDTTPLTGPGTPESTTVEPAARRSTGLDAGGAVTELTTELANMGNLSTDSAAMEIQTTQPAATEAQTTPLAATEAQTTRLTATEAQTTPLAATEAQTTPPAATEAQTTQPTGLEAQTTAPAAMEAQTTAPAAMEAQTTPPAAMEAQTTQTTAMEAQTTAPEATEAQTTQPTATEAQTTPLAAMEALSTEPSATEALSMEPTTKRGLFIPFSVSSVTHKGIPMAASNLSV
As to the kind of experiment: ELISA, plate-bound target. The protocol:
Two ELISA methods were performed. One procedure detected mAb binding to its plate-immobilized target and the other measured the immobilized antibody's ability to capture biotinylated PSGL-1₄₂₋₆₂. […] The plate was incubated for 45 min at 37° C. Plates were washed 3 times with wash buffer (PBS containing 0.05% tween 20, pH 7.4) and a single concentration (2 to 500 nM) or serially diluted (0.002-100 nM) anti-PSGL-1 mAb was added (25 ul/well) in assay buffer into appropriate wells. The plate was incubated for 45 min at 37° C., washed 3 times, and an appropriate HRP-conjugated secondary antibody added (25 ul/well) (HRP goat anti-mouse or anti-human IgG). After 45 min incubation at 37° C., the plate was washed, and antibody bound to plate-immobilized target was determined at A450 nm using HRP substrate (3,3′,5,5′-etramethylbenzidine (TMB)). For each antibody, duplicate values were averaged and assay background was subtracted. Except for the following, ELISAs involving plate-immobilized mAb capturing of biotinylated PSGL-1₄₂₋₆₂ peptides was performed in the same manner as described above: 3 ug/mL/25 ul per well of mAb was coated directly onto microtiter plate wells; biotinylated unmodified or sulfotyrosine PSGL-1₄₂₋₆₂ was serially diluted (3 nM-3 uM) into appropriate wells, and antibody-bound peptide was detected using HRP-streptavidin (Jackson Immunoresearch, Cat. #016-030-084).

A further experiment deals with T5, 42-80 (C-terminal Lys-biotin).
T5 construct: also called Biotin PSGL-1(42-80) peptide
T5 peptide: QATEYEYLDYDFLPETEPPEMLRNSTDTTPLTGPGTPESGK
As to the kind of experiment: ELISA, streptavidin-immobilized biotin peptide, 10 nM mAb [cont.]. The protocol:
(§1) A typical ELISA experiment involved binding of a single concentration or serially diluted mAb in assay buffer (3% BSA in PBS containing 0.05% Tween®20, pH 7.4) onto BSA blocked high binding microtiter plate half-wells (Corning Cat. #3690), which contained PSGL-1 protein or streptavidin-immobilized biotin peptide. After incubation for 45 min. at 37° C., the plate was washed 3 times with wash buffer (PBS containing 0.05% Tween®20, pH 7.4), and an appropriate HRP-conjugated secondary antibody added (25 ul/well) (HRP goat anti-mouse or anti-human IgG). After 45 min. incubation at 37° C., the plate was washed and antibody bound to plate-immobilized target was determined at A450 nm using HRP substrate (3,3′5,5′-tetramethylbenzidine (TMB)). For each antibody, duplicate values were averaged and assay background subtracted.

The target of experiment [4] is T6, Biotin PSGL-1(42-62) D50A peptide (C-terminal Lys-biotin).
T6 peptide: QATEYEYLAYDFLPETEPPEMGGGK
Nature of the experiment: ELISA; against wild-type PSGL-1 42-62.

In experiment [5] the target is T7, Biotin Y46,48,51(SO3) PSGL-1(42-62) peptide (human, sulfotyrosine at Y46, Y48 and Y51; C-terminal Lys-biotin).
T7 construct: also called fully sulfated N-terminal PSGL-1 peptide
T7 peptide: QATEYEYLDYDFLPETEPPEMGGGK
Nature of the experiment: capture ELISA; against parent 18F02. The protocol:
A typical ELISA for N-terminal PSGL-1 reactive humanized mAbs binding to Y_{46,48,51}(SO₃) PSGL-1₍₄₂₋₆₂₎ involved coating high binding half-well plates (Corning Cat. #3690) with 3 ug/mL/25 ul per well of the mAbs or with an isotype hG4 control in PBS, pH 7.4, overnight at 4° C. […] Biotinylated Y_{46,48,51}(SO₃) PSGL-1₍₄₂₋₆₂₎ was added (25 ul per well) in duplicate at 2.8 uM in assay buffer (blocking buffer containing 0.05% tween 20) and serially diluted into test and control (just blocked) wells, and the plate incubated for 45 min at 37° C. The plate was washed ×3 and an appropriate HRP-conjugated streptavidin was added (25 ul per well; Jackson Immunoresearch, Cat. #016-030-084) and the plate was incubated for 45 min at 37° C. […] For each antibody, an EC50 value was determined from sigmoidal fitted peptide titration curve.

Experiment [6] concerns the target T8, Biotin PSGL-1(42-62) Y46A peptide (C-terminal Lys-biotin).
T8 peptide: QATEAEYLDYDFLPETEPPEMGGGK
As to the kind of experiment: ELISA; against wild-type PSGL-1 42-62.

The target of experiment [7] is T9, Biotin PSGL-1(42-62) E45A peptide (C-terminal Lys-biotin).
T9 peptide: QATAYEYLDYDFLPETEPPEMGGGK
Nature of the experiment: ELISA; against wild-type PSGL-1 42-62.

The target of experiment [8] is T10, Biotin PSGL-1(42-62) L54A peptide (C-terminal Lys-biotin).
T10 peptide: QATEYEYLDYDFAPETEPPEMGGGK
As to the kind of experiment: ELISA; against wild-type PSGL-1 42-62.

The target of experiment [9] is T11, Biotin PSGL-1(105-125) peptide (human, N-terminal acetyl; C-terminal Lys-biotin).
T11 peptide: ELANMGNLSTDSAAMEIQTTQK
Nature of the experiment: ELISA; against WT PSGL-1(ECD)-hFc1. The procedure, abridged:
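Detection via HRP goat anti-mouse/anti-human IgG (45 min, 37 °C) and TMB at A450 nm, after mAb binding for 45 min at 37 °C to plate-bound PSGL-1 protein or biotin peptide on streptavidin. Assay buffer was PBS, 3% BSA, 0.05% Tween 20, pH 7.4; duplicate means minus background.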

Experiment [10] concerns the target T11, Biotin PSGL-1(105-125) peptide. As to the kind of experiment: ELISA, streptavidin-bound peptide. The protocol: as §1

B1: 43B6 (antibody, V domains shown)
VH: EVQLQQSGPDLVKPGALVKISCKASGYSFTAYYIHWVKQSHGKSLEWIGRVNPNTGGTSYNPKFKGKAILNVDKSSSTAYMELRSLTSEDSAVYYCARSGSPYYRYDDWGQGTTLTVSS
VL: ENVLTQSPAIMSASPGEKVTMTCRASSTVNSTYLHWFQQKSGASPKLWIYGSSNLASGVPARFSGSGSGTSYSLTISSVEAEDAATYYCQQYSGYPLTFGAGTTLELK
notes: Control anti-PSGL-1 mAb, recombinant; only variable domains given; also called 43B3
For orientation: EC50 (read off the curve) means the midpoint of the concentration-response curve. In experiment [1], B1 displayed an EC50Ala/EC50 wt of 22.3 fold. For the same molecule, in the experiment with PSGL-1(49-56)-Biotin, the “EC50 (read off the curve)” value is roughly 0.4 nM.

B2: 20I15 (antibody, V domains shown)
VH: EVKLVESGGGLVQPGGSLSLSCAASGFTFTDYYMSWVRQPPGKALEWLGFIRNKANGYTTEYSASVKGRFTISRDNSQSILYLQMNALRAEDSATYYCARTYLRRGYFDVWGTGTTVTVSS
VL: DIVLTQSPASLAVSLGQRATISCRASKSVSTSGYSYMHWFQQKPGQPPKLLIYLASNLESGVPARFSGSGSGTDFTLNIHPVEEEDAATYYCQHSRELPLTFGAGTKLELK
notes: From mouse immunisation; only variable domains given; also called 20115
By EC50 is commonly meant the midpoint of the concentration-response curve. For B2, the figures for the EC50 in [2] and in experiment [3] were roughly 3000 nM and 0.26 nM, respectively.

B3: 18F02 (antibody, V domains shown)
VH: QVQLQQPGAELVKPGASVKLSCKASGYTFTSYWMHWVKQRPGQGLEWIGMIHPNSGRTNYNEKFKSKATLTVDKSSSTAYMQLSSLTSEDSAVYYCARSDYWGQGTTLTVSS
VL: DIVMTQAAFSNPVTLGTSASISCRSSKSLLHSDGITYLYWFLQRPGQSPQLLIYRMSNLASGVPDRFSGSGSGTDFTLRISRVEAEDVGVYYCAQMLEFPRTFGGGTKLEIK
notes: From mouse immunisation; only variable domains given
Consider B3, for which, in the experiment with 42-80, the binding result is “binds”. Also, the EC50Ala/EC50 wt in [4] stood at 35.6 fold. The “N-term peptide EC50 (normalized)” value in experiment [5] stood at 1 fold.

B4: 16L15 (antibody, V domains shown)
VH: DVKLVESGGGLVKLGGSLKLSCAASGFTFSSYYMSWVRQTPEKRLEWVATISNGGGSTYYPDSVKDRFTISRDNAKNTLYLQMSSLNSEDTAVYYCAKPLYYSNPWFAYWGQGTLVTVSA
VL: DVLLTQTPLSLPVSLGDQASISCRSSQSIVHSNGNTYLEWYLQKPGQSPKLLIYKVSNRFSGVPDRFSGSGSGTDFTLKISRVEAEDLGVYYCFQGSHVPRTFGGGTKLEIK
notes: as for B3
For B4, the EC50Ala/EC50 wt worked out at 4.7 fold in [6] and 5.6 fold in experiment [7]. Also, the binding result with PSGL-1(49-56)-Biotin is reported as “no binding (tested: Log M -7.7 (about 20 nM))”.

B5: 9F9 (antibody, V domains shown)
VH: EVQLVETGGGLVQPKGSLKLSCAASGFTFNTNAMNWVRQAPGKGLEWVARIRSKSNNYATYYADSVKDRFTISRDDTQSMIYLQMNNLKTEDTGMYYCVRGGSYWYFDVWGAGTTVTVSS
VL: DVLMTQTPLSLPVSLGDQASISCRSSQSIVNSNGNTYLEWYLQKPGQSPKLLIYKVSNRFSGVPDRFSGSGSGTDFTLKISRVEAEDLGVYYCFQGSHVPWTFGGGTKLEIK
notes: Control anti-PSGL-1 mAb, recombinant; only variable domains given; also called 9F6
Molecule B5 returned an EC50Ala/EC50 wt in experiment [8] of 14.4 fold.

B6: 03D07 (antibody, IgG4, V domains shown)
VH: EVKLLESGGGLVQPGGSLRLSCAASGFTFSSYALSWVRQAPGKGLEWVSAISGSGGNTYYADSVKGRFTISRDNSKNTLYLQMNSLRAEDTAVYYCAKVVGATNYWGQGTLVTVSS
VL: DIVMTQTPLSLPVTLGQPASISCRSSQSLVYSDGHTYLSWFHQRPGQSPRRLIYKVSIRDSGVPDRFSGSGSGTDFTLKISRVEAEDVGVYYCMQRLQIPLTFGGGTKVEIK
The molecule B6 came in with a 50% effective concentration (EC50) in experiment [2] greater than 3000 nM.

B7: 16E17 (antibody, V domains shown)
VH: QIQLVQSGPELKKPGETVKISCKASGYAFTTYGMSWVKQAPGKGLKWMGWINTYSGVPKYADDFKGRFAFSLETSASTAYLHINNLKNEDTATYFCGRHYYGSSYFDYWGQGTTLTVSS
VL: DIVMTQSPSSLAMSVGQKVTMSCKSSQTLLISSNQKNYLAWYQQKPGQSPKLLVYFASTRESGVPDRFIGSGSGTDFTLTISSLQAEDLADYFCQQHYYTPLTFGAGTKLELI
notes: as for B3
In [9], B7 showed an EC50/EC50WTprot of roughly 100 fold. The “fold weaker binding than to PSGL-1(ECD)-hFc1” value in [10] is roughly 20 fold.
